Results reported in article PMC6920325.

Biological target: LDL-R (human, UniProt P01130 22-788)
Assay: ELONA

Chain of LDL-R (P01130 22-788): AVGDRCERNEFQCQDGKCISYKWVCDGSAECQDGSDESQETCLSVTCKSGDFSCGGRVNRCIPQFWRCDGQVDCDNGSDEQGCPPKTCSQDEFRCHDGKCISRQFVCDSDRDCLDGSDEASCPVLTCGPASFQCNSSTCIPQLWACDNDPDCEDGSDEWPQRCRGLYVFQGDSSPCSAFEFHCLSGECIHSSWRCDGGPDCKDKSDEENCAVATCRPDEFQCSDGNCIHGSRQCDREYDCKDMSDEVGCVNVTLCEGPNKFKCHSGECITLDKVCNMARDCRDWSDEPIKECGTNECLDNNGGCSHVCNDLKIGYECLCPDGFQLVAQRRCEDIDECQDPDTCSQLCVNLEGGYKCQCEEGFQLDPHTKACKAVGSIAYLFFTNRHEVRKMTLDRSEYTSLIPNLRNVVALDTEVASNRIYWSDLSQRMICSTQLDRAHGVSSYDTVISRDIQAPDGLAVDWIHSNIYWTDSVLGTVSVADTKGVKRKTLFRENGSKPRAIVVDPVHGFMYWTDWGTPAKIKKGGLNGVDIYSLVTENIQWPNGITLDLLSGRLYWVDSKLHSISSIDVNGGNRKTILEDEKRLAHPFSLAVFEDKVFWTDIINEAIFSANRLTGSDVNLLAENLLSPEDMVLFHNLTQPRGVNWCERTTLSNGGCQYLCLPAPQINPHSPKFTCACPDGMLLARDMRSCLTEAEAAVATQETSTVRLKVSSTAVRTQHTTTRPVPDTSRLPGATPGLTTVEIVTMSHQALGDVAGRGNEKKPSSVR

B1: RNV-L7 (ssDNA)
DNA: GGACAGGACCACACCCAGCGCGGTCGGCGGGTGGGCGGGGGGAGAACGAGGTAGGGGTCAGGCTCCTGTGTGTCGCTTTGT
Work on B1 yielded a Kd of 19.6 nM.

B2: RNV-L7 truncated (ssDNA)
DNA: CGGTCGGCGGGTGGGCGGGGGGAGAACGAGGTAGGGGTCA
B2: no binding.
